Key:
HLA-A2.1 [1] = target: T1, HLA-A2.1 (Homo sapiens, UniProt P04439, D140Y/D185E/D98H/E176V/E277Q/G131W/G231S/I119V/I121R/I166T/I218V/L300P/L318F/N151K/N90K/P208A/P217A/Q86G/Q94H/R138H/R169H/T345S); experiment: Peptide-HLA-A2.1 dissociation rate on T2 cells with Brefeldin A (SIM2 peptides); format: cell-based; conditions: 50 μg/ml peptide, loss of A2.1 expression over time
T1 construct: stabilize MHC class I molecules from the T2 cell line; endogenous in cells; host or cells: T2 cells
Protocol: T2 cells were incubated overnight with 50 μg/ml of each candidate peptide at 37° C. in serum-free Iscove's Modified Dulbecco's Medium (IMDM). Cells were then incubated with Brefeldin A (Sigma, St. Louis, Mo.) at 10 μg/ml for 1 hour, washed, and incubated at 37° C. for 0, 2, 4 or 6 hours in the presence of Brefeldin A (50 ng/ml). Cells were then stained with BB7.2 mAb. For each time point, peptide-induced HLA-A2.1 expression was calculated as the difference of the mean fluorescence of peptide-loaded T2 cells and mean fluorescence of negative peptide-loaded T2 cells. The rate of dissociation is reflected by the loss of A2.1 expression over time.

transgenic HHD mice = experiment: Immunization of HHD mice with SIM2 peptides, IFN-γ ELISPOT on splenocytes; format: in vivo, mouse; conditions: male HHD mice, s.c. peptide in IFA with HBVcore128-140 helper epitope, 10-12 days; P<0.01 for SIM2(87), P<0.001 for other epitopes
Protocol: These nine SIM2 peptides were then tested for their capacity to elicit in vivo CTL responses in transgenic HHD mice. Ten to 12-week old male HHD mice were injected subcutaneously at the basis of the tail with […] of each candidate peptide emulsified in 50 μl of Incomplete Freund's Adjuvant (IFA) and 50 μl PBS in the presence of 150 μg of the I-A^b restricted HBVcore128-140 T helper epitope ([…]; SEQ ID NO: 88). Ten to twelve days post-immunization, spleens were harvested and splenocytes tested for peptide-induced specific release of IFN-γ by ELISPOT. To perform the ELISPOT assays, 96-well Millipore IP plates were coated with 100 μl/well mouse IFN-γ specific capture mAb (AN18, Mabtech Inc., Mariemont, Ohio) at a concentration of 10 μg/ml in PBS overnight at 4° C. Wells were washed with PBS and saturated with RPMI/10% FCS for 1 hour at 37° C. A total of 2.5×10^5 splenocytes were seeded in each well in four replicates and 5×10^4 peptide-loaded (10 μg peptide/ml, for 2 hours at 37° C.) splenocytes pretreated with 50 μg/ml Mitomycin C for 1 hour were added to each well. Plates were incubated for 1-2 days at 37° C. in 5% CO2, washed 5 times with PBS, and then incubated with 1 μg/ml of biotinylated rat anti-mouse IFN-γ mAb (R4-6A2, Mabtech Inc.) for 24 hours at 4° C. or at room temperature for 2 hours. The wells were washed, and incubated with 100 μl of diluted alkaline phosphatase-conjugated streptavidin for 1 hour at room temperature. Spots were developed by adding […] substrates (5-bromo-4,3-indolyl phosphate and nitroblue tetrazolium) and counted using the ELRO4 AID ELISPOT Reader System (Autoimmun Diagnostika GmbH, Straf3berg, Germany).

HLA-A2.1 [2] = target: T1, HLA-A2.1; experiment: MHC stabilization assay on T2 cells (SIM2 peptides); format: cell-based; conditions: 50 μg peptide/250×10^3 cells/ml overnight at 37° C., BB7.2 mAb, flow cytometry
Protocol: Epitope candidates were evaluated for binding to HLA-A2.1 using an MHC stabilization assay. The assay is based on the ability of suitable peptides to stabilize MHC class I molecules from the T2 cell line. T2 cells lack a functional transporter associated with antigen presentation (TAP) and as a result accumulate empty, unstable class I molecules on the cell surface. These molecules on the cell surface dissociate rapidly unless they are stabilized by the addition of an appropriate binding peptide. In this assay, the flu M1 HLA-A*0201-binding peptide was used as a reference.
Briefly, T2 cells were cultured for 6 hours in serum-free IMDM (ATCC) prior to the addition of candidate peptides at a concentration of 50 μg/250×10^3 cells/ml and incubated overnight at 37° C. Cells were washed, and surface HLA-A2.1 molecules were stained with FITC mouse anti-human HLA-A2 mAb (clone BB7.2, Mouse IgG2b κ, BD Pharmingen) for 1 hour at 4° C. Cells were then washed three times with PBS and analyzed by flow cytometry. A negative control peptide (NEG, see FIG. 6A) and the flu matrix peptide M1 binder peptide (M1, see FIG. 6A) served as controls. The relative binding affinity of a given peptide was calculated as MFI(peptide)/MFI(negative peptide). Only relative binding affinities of 1.5 or higher were considered for further testing.

Row | Substance | peptide-HLA dissociation rate (weak or strong stabilizing epitope) (HLA-A2.1 [1]) | peptide-specific IFN-γ release by splenocytes (ELISPOT), immunogenicity (transgenic HHD mice) | binding to / stabilization of HLA-A2.1 molecules (HLA-A2.1 [2])
1 | epitope 430: SIM2 peptide able to stabilize HLA-A2.1 molecules, weak stabilizing epitope; sequence not printed (LLYTPSYSL) | weak stabilizing |  | 
2 | YQIVGLVAV (listed as Homo sapiens) [SIM2(205)] | strong stabilizing | higher numbers of splenocytes to release IFN-γ | 
3 | TLDGFVFVV (listed as Homo sapiens) [SIM2(87)] | strong stabilizing | higher numbers of splenocytes to release IFN-γ | 
4 | SLDLKLIFL (listed as Homo sapiens) [SIM2(237)] | weak stabilizing | higher numbers of splenocytes to release IFN-γ | 
5 | KLIFLDSRV (listed as Homo sapiens) [SIM2(241)] | strong stabilizing | higher numbers of splenocytes to release IFN-γ | 
6 | SIM2(25): SIM2 peptide that binds tightly to A2.1 but was not immunogenic; sequence not printed (KLLPLPSAI) |  | not immunogenic | bind tightly
7 | epitope 84: SIM2 peptide able to stabilize HLA-A2.1 molecules, weak stabilizing epitope; sequence not printed (LLQTLDGFV) | weak stabilizing |  | 
8 | FLDSRVTEV (listed as Homo sapiens) [SIM2(244)] | strong stabilizing | higher numbers of splenocytes to release IFN-γ | 
9 | SIM2(199): SIM2 peptide able to stabilize HLA-A2.1 molecules, not immunogenic; sequence not printed (SLYDSCYQI) | weak stabilizing | not immunogenic | bind tightly
